Experimental data reported in patent publication US20260055205A1 (published 2026).

Molecular target: T1, human CD3 epsilon (human, UniProt P07766 23-126, limits assumed)
T1 construct: also called huCD3e
Test: Octet, crude lysate
Description: Pool 2 consisted of paTCE molecules each containing PSMA.262 and one of 64 CD3.23 mutation combination variants. Stability and affinity of the individually expressed molecules in the form of crude lysate was evaluated by Octet. […] The binding of these anti-CD3 molecules (CD3.227, CD3.228, CD3.229 and CD3.230) to human and cynomolgus CD3 was measured by Octet and the Tm was measured by Differential Scanning Fluorimetry. All variants were paired with PSMA.262 except for CD3.23 which was paired with PSMA.5.

T1 sequence (P07766 23-126 limits assumed): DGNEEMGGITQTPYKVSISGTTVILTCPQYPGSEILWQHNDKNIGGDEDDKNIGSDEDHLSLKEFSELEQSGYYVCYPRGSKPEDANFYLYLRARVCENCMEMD

Binder | Kd
CD3.220 (bispecific antibody, V domains shown, paTCE with PSMA.262; also called AC3651) VH: EVQLVESGGGIVQPGGSLRLSCAASGFTFSTYAMNWVRQAPGKGLEWVGRIRTKRNNYATYYADSVKGRFTISRDDSKNTVYLQMNELKTEDTAVYYCVRHENFGNSYVSWFAHWGQGTLVTVSS VL: ELVVTQEPSLTVSPGGTVTLTCRSSNGAVTSSNYANWVQQKPGQAPRGLIGGTNKRAPGTPARFSGSLLGGKAALTLSGVQPEDEAVYYCALWYPNLWVFGGGTKLTVL | 4.8 nM
CD3.214 (bispecific antibody, V domains shown, paTCE with PSMA.262; also called AC3645) VH: EVQLVESGGGIVQPGGSLRLSCAASGFTFSTYAMNWVRQAPGKGLEWVGRIRSKYNDYATYYADSVKGRFTISRDDSKNTVYLQMNELKTEDTAVYYCVRHENFGNSYVSWFAHWGQGTLVTVSS VL: ELVVTQEPSLTVSPGGTVTLTCRSSNGAVTSSNYANWVQQKPGQAPRGLIGGTNKRAPGTPARFSGSLLGGKAALTLSGVQPEDEAVYYCALWYPNLWVFGGGTKLTVL | 6.6 nM
CD3.211 (bispecific antibody, V domains shown, paTCE with PSMA.262; also called AC3642) VH: EVQLVESGGGIVQPGGSLRLSCAASGFTFNTYAMNWVRQAPGKGLEWVGRIRSKTNNYATYYADSVKGRFTISRDDSKNTVYLQMNELKTEDTAVYYCVRHENFGNSYVSWFAHWGQGTLVTVSS VL: ELVVTQEPSLTVSPGGTVTLTCRSSNGAVTSSNYANWVQQKPGQAPRGLIGGTNKRAPGTPARFSGSLLGGKAALTLSGVQPEDEAVYYCALWYPNLWVFGGGTKLTVL | 9.5 nM
CD3.209 (bispecific antibody, V domains shown, paTCE with PSMA.262; also called AC3640) VH: EVQLVESGGGIVQPGGSLRLSCAASGFTFNTYAMNWVRQAPGKGLEWVGRIRSKRNNYATYYADSVKGRFTISRDDSKNTVYLQMNELKTEDTAVYYCVRHENFGNSYVSWFAHWGQGTLVTVSS VL: ELVVTQEPSLTVSPGGTVTLTCRSSNGAVTSSNYANWVQQKPGQAPRGLIGGTNKRAPGTPARFSGSLLGGKAALTLSGVQPEDEAVYYCALWYPNLWVFGGGTKLTVL | 5.6 nM
CD3.213 (bispecific antibody, V domains shown, paTCE with PSMA.262; also called AC3644) VH: EVQLVESGGGIVQPGGSLRLSCAASGFTFNTYAMNWVRQAPGKGLEWVGRIRSKYNDYATYYADSVKGRFTISRDDSKNTVYLQMNELKTEDTAVYYCVRHENFGNSYVSWFAHWGQGTLVTVSS VL: ELVVTQEPSLTVSPGGTVTLTCRSSNGAVTSSNYANWVQQKPGQAPRGLIGGTNKRAPGTPARFSGSLLGGKAALTLSGVQPEDEAVYYCALWYPNLWVFGGGTKLTVL | 6.6 nM
CD3.204 (bispecific antibody, V domains shown, paTCE with PSMA.262; also called AC3635) VH: EVQLVESGGGIVQPGGSLRLSCAASGFTFNTYAMNWVRQAPGKGLEWVGRIRSKTNNYATYYADSVKGRFTISRDDSKNTVYLQMNSLKTEDTAVYYCVRHENFGNSYVSWFAHWGQGTLVTVSS VL: ELVVTQEPSLTVSPGGTVTLTCRSSNGAVTSSNYANWVQQKPGQAPRGLIGGTNKRAPGTPARFSGSLLGGKAALTLSGVQPEDEAVYYCALWYPNLWVFGGGTKLTVL | 7.2 nM
CD3.222 (bispecific antibody, V domains shown, paTCE with PSMA.262; also called AC3653) VH: EVQLVESGGGIVQPGGSLRLSCAASGFTFSTYAMNWVRQAPGKGLEWVGRIRTKTNNYATYYADSVKGRFTISRDDSKNTVYLQMNELKTEDTAVYYCVRHENFGNSYVSWFAHWGQGTLVTVSS VL: ELVVTQEPSLTVSPGGTVTLTCRSSNGAVTSSNYANWVQQKPGQAPRGLIGGTNKRAPGTPARFSGSLLGGKAALTLSGVQPEDEAVYYCALWYPNLWVFGGGTKLTVL | 10.8 nM
CD3.212 (bispecific antibody, V domains shown, paTCE with PSMA.262; also called AC3643) VH: EVQLVESGGGIVQPGGSLRLSCAASGFTFSTYAMNWVRQAPGKGLEWVGRIRSKTNNYATYYADSVKGRFTISRDDSKNTVYLQMNELKTEDTAVYYCVRHENFGNSYVSWFAHWGQGTLVTVSS VL: ELVVTQEPSLTVSPGGTVTLTCRSSNGAVTSSNYANWVQQKPGQAPRGLIGGTNKRAPGTPARFSGSLLGGKAALTLSGVQPEDEAVYYCALWYPNLWVFGGGTKLTVL | 35.6 nM
CD3.219 (bispecific antibody, V domains shown, paTCE with PSMA.262; also called AC3650) VH: EVQLVESGGGIVQPGGSLRLSCAASGFTFNTYAMNWVRQAPGKGLEWVGRIRTKRNNYATYYADSVKGRFTISRDDSKNTVYLQMNELKTEDTAVYYCVRHENFGNSYVSWFAHWGQGTLVTVSS VL: ELVVTQEPSLTVSPGGTVTLTCRSSNGAVTSSNYANWVQQKPGQAPRGLIGGTNKRAPGTPARFSGSLLGGKAALTLSGVQPEDEAVYYCALWYPNLWVFGGGTKLTVL | 4.7 nM
CD3.208 (bispecific antibody, V domains shown, paTCE with PSMA.262; also called AC3639) VH: EVQLVESGGGIVQPGGSLRLSCAASGFTFNTYAMNWVRQAPGKGLEWVGRIRSKYNNYATTYADSVKGRFTISRDDSKNTVYLQMNSLKTEDTAVYYCVRHENFGNSYVSWFAHWGQGTLVTVSS VL: ELVVTQEPSLTVSPGGTVTLTCRSSNGAVTSSNYANWVQQKPGQAPRGLIGGTNKRAPGTPARFSGSLLGGKAALTLSGVQPEDEAVYYCALWYPNLWVFGGGTKLTVL | 16.8 nM
CD3.207 (bispecific antibody, V domains shown, paTCE with PSMA.262; also called AC3638) VH: EVQLLESGGGIVQPGGSLRLSCAASGFTFNTYAMNWVRQAPGKGLEWVGRIRSKYNNYATTYADSVKGRFTISRDDSKNTVYLQMNSLKTEDTAVYYCVRHENFGNSYVSWFAHWGQGTLVTVSS VL: ELVVTQEPSLTVSPGGTVTLTCRSSNGAVTSSNYANWVQQKPGQAPRGLIGGTNKRAPGTPARFSGSLLGGKAALTLSGVQPEDEAVYYCALWYPNLWVFGGGTKLTVL | 15.6 nM

More lines, in order of falling Kd, values ahead:

Kd | Binder
52.6 nM | CD3.218 (bispecific antibody, V domains shown, paTCE with PSMA.262; also called AC3649) VH: EVQLVESGGGIVQPGGSLRLSCAASGFTFSTYAMNWVRQAPGKGLEWVGRIRSKYNNYATTYADSVKGRFTISRDDSKNTVYLQMNSLKTEDTAVYYCVRHENFGNSYVSWFAHWGQGTLVTVSS VL: ELVVTQEPSLTVSPGGTVTLTCRSSNGAVTSSNYANWVQQKPGQAPRGLIGGTNKRAPGTPARFSGSLLGGKAALTLSGVQPEDEAVYYCALWYPNLWVFGGGTKLTVL
11.7 nM | CD3.221 (bispecific antibody, V domains shown, paTCE with PSMA.262; also called AC3652) VH: EVQLVESGGGIVQPGGSLRLSCAASGFTFNTYAMNWVRQAPGKGLEWVGRIRTKTNNYATYYADSVKGRFTISRDDSKNTVYLQMNELKTEDTAVYYCVRHENFGNSYVSWFAHWGQGTLVTVSS VL: ELVVTQEPSLTVSPGGTVTLTCRSSNGAVTSSNYANWVQQKPGQAPRGLIGGTNKRAPGTPARFSGSLLGGKAALTLSGVQPEDEAVYYCALWYPNLWVFGGGTKLTVL
11.2 nM | CD3.216 (bispecific antibody, V domains shown, paTCE with PSMA.262; also called AC3647) VH: EVQLVESGGGIVQPGGSLRLSCAASGFTFSTYAMNWVRQAPGKGLEWVGRIRSKTNNYATYYADSVKGRFTISRDDSKNTVYLQMNSLKTEDTAVYYCVRHENFGNSYVSWFAHWGQGTLVTVSS VL: ELVVTQEPSLTVSPGGTVTLTCRSSNGAVTSSNYANWVQQKPGQAPRGLIGGTNKRAPGTPARFSGSLLGGKAALTLSGVQPEDEAVYYCALWYPNLWVFGGGTKLTVL
10.7 nM | CD3.217 (bispecific antibody, V domains shown, paTCE with PSMA.262; also called AC3648) VH: EVQLVESGGGIVQPGGSLRLSCAASGFTFSTYAMNWVRQAPGKGLEWVGRIRSKYNDYATYYADSVKGRFTISRDDSKNTVYLQMNSLKTEDTAVYYCVRHENFGNSYVSWFAHWGQGTLVTVSS VL: ELVVTQEPSLTVSPGGTVTLTCRSSNGAVTSSNYANWVQQKPGQAPRGLIGGTNKRAPGTPARFSGSLLGGKAALTLSGVQPEDEAVYYCALWYPNLWVFGGGTKLTVL
10.3 nM | CD3.206 (bispecific antibody, V domains shown, paTCE with PSMA.262; also called AC3637) VH: EVQLVESGGGIVQPGGSLRLSCAASGFTFNTYAMNWVRQAPGKGLEWVGRIRSKYNDYATYYADSVKGRFTISRDDSKNTVYLQMNSLKTEDTAVYYCVRHENFGNSYVSWFAHWGQGTLVTVSS VL: ELVVTQEPSLTVSPGGTVTLTCRSSNGAVTSSNYANWVQQKPGQAPRGLIGGTNKRAPGTPARFSGSLLGGKAALTLSGVQPEDEAVYYCALWYPNLWVFGGGTKLTVL
9.7 nM | CD3.215 (bispecific antibody, V domains shown, paTCE with PSMA.262; also called AC3646) VH: EVQLVESGGGIVQPGGSLRLSCAASGFTFSTYAMNWVRQAPGKGLEWVGRIRSKRNNYATYYADSVKGRFTISRDDSKNTVYLQMNSLKTEDTAVYYCVRHENFGNSYVSWFAHWGQGTLVTVSS VL: ELVVTQEPSLTVSPGGTVTLTCRSSNGAVTSSNYANWVQQKPGQAPRGLIGGTNKRAPGTPARFSGSLLGGKAALTLSGVQPEDEAVYYCALWYPNLWVFGGGTKLTVL
8.6 nM | CD3.201 (bispecific antibody, V domains shown, paTCE with PSMA.262; also called AC3632) VH: EVQLLESGGGIVQPGGSLRLSCAASGFTFNTYAMNWVRQAPGKGLEWVGRIRSKRNNYATYYADSVKGRFTISRDDSKNTVYLQMNSLKTEDTAVYYCVRHENFGNSYVSWFAHWGQGTLVTVSS VL: ELVVTQEPSLTVSPGGTVTLTCRSSNGAVTSSNYANWVQQKPGQAPRGLIGGTNKRAPGTPARFSGSLLGGKAALTLSGVQPEDEAVYYCALWYPNLWVFGGGTKLTVL
8.4 nM | CD3.202 (bispecific antibody, V domains shown, paTCE with PSMA.262; also called AC3633) VH: EVQLVESGGGIVQPGGSLRLSCAASGFTFNTYAMNWVRQAPGKGLEWVGRIRSKRNNYATYYADSVKGRFTISRDDSKNTVYLQMNSLKTEDTAVYYCVRHENFGNSYVSWFAHWGQGTLVTVSS VL: ELVVTQEPSLTVSPGGTVTLTCRSSNGAVTSSNYANWVQQKPGQAPRGLIGGTNKRAPGTPARFSGSLLGGKAALTLSGVQPEDEAVYYCALWYPNLWVFGGGTKLTVL
7.2 nM | CD3.205 (bispecific antibody, V domains shown, paTCE with PSMA.262; also called AC3636) VH: EVQLLESGGGIVQPGGSLRLSCAASGFTFNTYAMNWVRQAPGKGLEWVGRIRSKYNDYATYYADSVKGRFTISRDDSKNTVYLQMNSLKTEDTAVYYCVRHENFGNSYVSWFAHWGQGTLVTVSS VL: ELVVTQEPSLTVSPGGTVTLTCRSSNGAVTSSNYANWVQQKPGQAPRGLIGGTNKRAPGTPARFSGSLLGGKAALTLSGVQPEDEAVYYCALWYPNLWVFGGGTKLTVL
5.7 nM | CD3.210 (bispecific antibody, V domains shown, paTCE with PSMA.262; also called AC3641) VH: EVQLVESGGGIVQPGGSLRLSCAASGFTFSTYAMNWVRQAPGKGLEWVGRIRSKRNNYATYYADSVKGRFTISRDDSKNTVYLQMNELKTEDTAVYYCVRHENFGNSYVSWFAHWGQGTLVTVSS VL: ELVVTQEPSLTVSPGGTVTLTCRSSNGAVTSSNYANWVQQKPGQAPRGLIGGTNKRAPGTPARFSGSLLGGKAALTLSGVQPEDEAVYYCALWYPNLWVFGGGTKLTVL
